What was measured:
Format in all cases: biochemical
[1] = P. fluorescens perhydrolase constructs, peracetic acid in solution (Example 10); conditions: 2 μM enzyme, 100 mM H2O2, 1 M sodium acetate pH 5.5, 30 min, 37° C.; no enzyme 9
Method: (§1) The detection of peracetic acid followed the method described in Pinkernell et. al. (Analyst, 1997, 122, 567) using colorimetric detection of 2,2′-azino-bis(3-ethylbenzothiazoline(-6-sulfonate (ABTS) oxidation by peracetic acid. Following the formation of peracetic acid with the addition of triacetin and hydrogen peroxide, 90 μL of solution was added to 10 μL of 0.1 M H3PO4 in a well plate. 50 μL of 1 M acetic acid, 50 μL of 0.5 g/L ABTS and 50 μL of 0.002 g/L of KI was added. The solution was allowed to develop for 5 min. The absorbance of the solution was measured at 405 nm using a microplate reader. The peracetic acid concentration was calculated based on a standard curve developed simultaneously using peracetic acid reagent solution.
(§2) For P. fluorescens constructs, the solution activity was measured by mixing a 1 mL solution containing 2 μM enzyme, 100 mM H2O2 in a 1 M sodium acetate buffer, pH 5.5. The solution was incubated at 37° C. for 30 min. As described in Example 7, the reaction was stopped by removing a portion to H3PO4 and a 10 μL aliquot was removed and diluted for detection via ABTS oxidation. For assessment of binding and activity on hydroxyapatite, the P. fluorescens enzymes were exposed to hydroxyapatite particles at 20 μM in 10 mM phosphate buffer as described in Example 8 using 100 mg of buffer washed HAP particles (Macro-prep Ceramic Hydroxyapatite TYPE I, 80 μm size BioRad, Hercules, Calif.). Following centrifugation and removal of the enzyme solution, the particles were rinsed with phosphate butter by centrifuging and removing the supernatant. A 200 μL solution containing 300 mM H2O2 in 1 M sodium acetate buffer, pH 5.5 was added to the particles and incubated at 37° C. for 10 min. As described in Example 7, the reaction was stopped by removing a portion to H3PO4 and a 10 μL aliquot was removed and diluted for detection via ABTS oxidation.

[2] = P. fluorescens perhydrolase constructs, peracetic acid when bound to hydroxyapatite particles (Example 10); conditions: 100 mg HAP particles exposed to 20 μM enzyme; 300 mM H2O2, 1 M sodium acetate pH 5.5, 10 min, 37° C.; no enzyme 17
Method: as §1, §2

[3] = M. smegmatis aryl esterase constructs, peracetic acid when bound to hydroxyapatite particles (Example 10); conditions: 33 mg HAP particles exposed to 10 μM enzyme; 100 mM triacetin, 100 mM H2O2, 30 min, 37° C.; no enzyme 323
Method: as §1
For assessment of binding and activity on hydroxyapatite, the aryl esterase enzymes were exposed to hydroxyapatite particles as described in Example 8 using 33 mg of buffer washed HAP particles (Macro-prep Ceramic Hydroxyapatite TYPE I, 80 μm size BioRad, Hercules, Calif.) using a 10 μM solution in 10 mM phosphate buffer. Following centrifugation and removal of the enzyme solution, the particles were rinsed with phosphate butter by centrifuging and removing the supernatant. A 200 μL solution containing 100 mM triacetin, 100 mM H2O2 and 100 mM phosphate buffer, pH 7.2 was added to the particles and incubated at 37° C. for 30 min. As described in Example 7, the reaction was stopped by removing a portion to H3PO4 and a 10 μL aliquot was removed diluted for detection via ABTS oxidation.

[4] = M. smegmatis aryl esterase constructs, peracetic acid in solution (Example 10); conditions: 0.5 μM enzyme, 100 mM triacetin, 100 mM H2O2, pH 7.2, 30 min, 37° C.; no enzyme 158
Method: as §1
For aryl esterase constructs, the enzyme activity in solution was measured by making a 1 mL solution of 0.5 μM of each enzyme, 100 mM triacetin, and 100 mM H2O2 in 100 mM phosphate buffer, pH 7.2. The solution was mixed and incubated for 30 min, at 37° C. As described in Example 7, the reaction was stopped by removing a portion to H3PO4 and a 10 μL aliquot was removed and diluted for detection via ABTS oxidation.

Molecule	Peracetic acid (ppm) In Solution [1] [ppm]	Peracetic acid (ppm) On Hydroxyapatite [2] [ppm]	Peracetic acid (ppm) On Hydroxyapatite [3] [ppm]	Peracetic acid (ppm) In Solution [4] [ppm]
EZ-36: M. smegmatis aryl esterase ArE S54V, untargeted, SEQ ID NO: 460 (protein, listed as Mycobacterium smegmatis) MAKRILCFGDSLTWGWVPVEDGAPTERFAPDVRWTGVLAQQLGADFEVIEEGLVARTTNIDDPTDPRLNGASYLPSCLATHLPLDLVIIMLGTNDTKAYFRRTPLDIALGMSVLVTQVLTSAGGVGTTYPAPKVLVVSPPPLAPMPHPWFQLIFEGGEQKTTELARVYSALASFMKVPFFDAGSVISTDGVDGIHFTEANNRDLGVALAEQVRSLL			452	2697
EZ-40: ArE-link1-DenP308-H6, SEQ ID NO: 464 (protein) MAKRILCFGDSLTWGWVPVEDGAPTERFAPDVRWTGVLAQQLGADFEVIEEGLVARTTNIDDPTDPRLNGASYLPSCLATHLPLDLVIIMLGTNDTKAYFRRTPLDIALGMSVLVTQVLTSAGGVGTTYPAPKVLVVSPPPLAPMPHPWFQLIFEGGEQKTTELARVYSALASFMKVPFFDAGSVISTDGVDGIHFTEANNRDLGVALAEQVRSLLGPGSGGAGSPGSAGGPGSDPTKPPRTPTANTSRPHHNFGSGGGGSPHHHHHH			2476	3605
EZ-39: ArE-link1-(GK)5-H6, SEQ ID NO: 463 (protein) MAKRILCFGDSLTWGWVPVEDGAPTERFAPDVRWTGVLAQQLGADFEVIEEGLVARTTNIDDPTDPRLNGASYLPSCLATHLPLDLVIIMLGTNDTKAYFRRTPLDIALGMSVLVTQVLTSAGGVGTTYPAPKVLVVSPPPLAPMPHPWFQLIFEGGEQKTTELARVYSALASFMKVPFFDAGSVISTDGVDGIHFTEANNRDLGVALAEQVRSLLGPGSGGAGSPGSAGGPGSGKGKGKGKGKHHHHHH			3553	1366
EZ-41: Pfl-link1-H6, SEQ ID NO: 465 (protein) MSTFVAKDGTQIYFKDWGSGKPVLFSHGWPLDADMWEYQMEYLSSRGYRTIAFDRRGFGRSDQPWTGNDYDTFADDIAQLIEHLDLKEVTLVGFSMGGGDVARYIARHGSARVAGLVLLGAVTPLFGQKPDYPQGVPLDVFARFKTELLKDRAQFISDFNAPFYGINKGQVVSQGVQTQTLQIALLASLKATVDCVTAFAETDFRPDMAKIDVPTLVIHGDGDQIVPFETTGKVAAELIKGAELKVYKDAPHGFAVTHAQQLNEDLLAFLKRGPGSGGAGSPGSAGGPGSHHHHHH		18		
EZ-37: ArE-link1-H6, SEQ ID NO: 461 (protein) MAKRILCFGDSLTWGWVPVEDGAPTERFAPDVRWTGVLAQQLGADFEVIEEGLVARTTNIDDPTDPRLNGASYLPSCLATHLPLDLVIIMLGTNDTKAYFRRTPLDIALGMSVLVTQVLTSAGGVGTTYPAPKVLVVSPPPLAPMPHPWFQLIFEGGEQKTTELARVYSALASFMKVPFFDAGSVISTDGVDGIHFTEANNRDLGVALAEQVRSLLGPGSGGAGSPGSAGGPGSHHHHHH			927	

The next lines start with the values.

Peracetic acid (ppm) In Solution [1] [ppm]	Peracetic acid (ppm) On Hydroxyapatite [2] [ppm]	Peracetic acid (ppm) On Hydroxyapatite [3] [ppm]	Peracetic acid (ppm) In Solution [4] [ppm]	Molecule
79	68			EZ-43: Pfl-link1-DenP308-H6, SEQ ID NO: 467 (protein) MSTFVAKDGTQIYFKDWGSGKPVLFSHGWPLDADMWEYQMEYLSSRGYRTIAFDRRGFGRSDQPWTGNDYDTFADDIAQLIEHLDLKEVTLVGFSMGGGDVARYIARHGSARVAGLVLLGAVTPLFGQKPDYPQGVPLDVFARFKTELLKDRAQFISDFNAPFYGINKGQVVSQGVQTQTLQIALLASLKATVDCVTAFAETDFRPDMAKIDVPTLVIHGDGDQIVPFETTGKVAAELIKGAELKVYKDAPHGFAVTHAQQLNEDLLAFLKRGPGSGGAGSPGSAGGPGSDPTKPPRTPTANTSRPHHNFGSGGGGSPHHHHHH
64	63			EZ-42: Pfl-link1-(GK)5-H6, SEQ ID NO: 466 (protein) MSTFVAKDGTQIYFKDWGSGKPVLFSHGWPLDADMWEYQMEYLSSRGYRTIAFDRRGFGRSDQPWTGNDYDTFADDIAQLIEHLDLKEVTLVGFSMGGGDVARYIARHGSARVAGLVLLGAVTPLFGQKPDYPQGVPLDVFARFKTELLKDRAQFISDFNAPFYGINKGQVVSQGVQTQTLQIALLASLKATVDCVTAFAETDFRPDMAKIDVPTLVIHGDGDQIVPFETTGKVAAELIKGAELKVYKDAPHGFAVTHAQQLNEDLLAFLKRGPGSGGAGSPGSAGGPGSGKGKGKGKGKHHHHHH
58	97			EZ-44: Pfl-link1-HC263-H6, SEQ ID NO: 479 (protein) MSTFVAKDGTQIYFKDWGSGKPVLFSHGWPLDADMWEYQMEYLSSRGYRTIAFDRRGFGRSDQPWTGNDYDTFADDIAQLIEHLDLKEVTLVGFSMGGGDVARYIARHGSARVAGLVLLGAVTPLFGQKPDYPQGVPLDVFARFKTELLKDRAQFISDFNAPFYGINKGQVVSQGVQTQTLQIALLASLKATVDCVTAFAETDFRPDMAKIDVPTLVIHGDGDQIVPFETTGKVAAELIKGAELKVYKDAPHGFAVTHAQQLNEDLLAFLKRGPGSGGAGSPGSAGGPGSPSAQSQLPDKHSGLHERAPQRYGPEPEPEPEPIPEPPKEAPVVIEKPKPKPKPKPKPPAHDHKNQKETHQRHAAGSGGGGSPHHHH
